The values that follow come from PMC10931773.

Usually Kd stands for a measure of binding affinity in units of concentration. Broadly, the koff is the rate constant with which the complex falls apart. As a reminder, the kon is the rate constant with which the complex forms.

The target in this assay is T1, C-reactive protein (recombinant human CRP) (human) (UniProt P02741).
T1 sequence: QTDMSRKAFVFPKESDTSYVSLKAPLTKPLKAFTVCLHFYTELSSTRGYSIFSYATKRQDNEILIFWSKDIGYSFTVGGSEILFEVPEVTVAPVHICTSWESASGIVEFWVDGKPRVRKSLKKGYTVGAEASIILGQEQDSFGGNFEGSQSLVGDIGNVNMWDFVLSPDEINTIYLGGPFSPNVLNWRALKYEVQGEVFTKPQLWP
The assay can be described thus: SPR; Biacore T200; CRP immobilised on a CM5 chip by amine coupling (1074 RU); antibodies 0.50-75 nM injected at 30 µL/min, association and dissociation 120 s; 1:1 Langmuir global fit. A general note: Surface plasmon resonance follows binding to a sensor surface in real time, without labels.

B1: anti-CRP single-chain variable fragment (scFv) (scFv, V domains shown)
VH: QVQLQQSGAELVKPGASVKLSCTASGFNIKDYYMHWVKQRTEQGLEWIGRIDPEDGETKYAPKFQGKATITADTSSNTAYLQLSSLTSEDTAVYYCARGYYGSEAMDYWGQGTSLTVSS
VL: SIVMTQSHKFMSTSVGDRVSITCKASQDVNTAVAWYQQKPGQSPKLLIYWASTRHTGVPDRFTGSGFGTDYTLTISSVQAEDLALYYCQQHYSTPWTFGGGTKLEIK
Consider B1, for which the dissociation constant (Kd) was determined as 4.8 nM, the koff was 0.0016 s⁻¹ and the on-rate (kon) was found to be 350000 M⁻¹ s⁻¹.

B2: monovalent antibody-enzyme complex (anti-CRP scFv-ST joined to GDH-SC) (complex)
VH: QVQLQQSGAELVKPGASVKLSCTASGFNIKDYYMHWVKQRTEQGLEWIGRIDPEDGETKYAPKFQGKATITADTSSNTAYLQLSSLTSEDTAVYYCARGYYGSEAMDYWGQGTSLTVSS
VL: SIVMTQSHKFMSTSVGDRVSITCKASQDVNTAVAWYQQKPGQSPKLLIYWASTRHTGVPDRFTGSGFGTDYTLTISSVQAEDLALYYCQQHYSTPWTFGGGTKLEIK
Consider B2, for which the Kd was 28.7 nM, the koff came to 0.0019 s⁻¹ and the kon turned out to be 67000 M⁻¹ s⁻¹.

B3: anti-CRP scFv-SpyTag (scFv, V domains shown)
VH: QVQLQQSGAELVKPGASVKLSCTASGFNIKDYYMHWVKQRTEQGLEWIGRIDPEDGETKYAPKFQGKATITADTSSNTAYLQLSSLTSEDTAVYYCARGYYGSEAMDYWGQGTSLTVSS
VL: SIVMTQSHKFMSTSVGDRVSITCKASQDVNTAVAWYQQKPGQSPKLLIYWASTRHTGVPDRFTGSGFGTDYTLTISSVQAEDLALYYCQQHYSTPWTFGGGTKLEIK
Take B3: the Kd amounted to 5 nM, the koff stood at 0.0017 s⁻¹ and the kon turned out to be 340000 M⁻¹ s⁻¹.
